B1: Cnn CM2 WT (GGS-H1082-L1148) (domain or fragment, Drosophila melanogaster)
chain: GGSHDCAKVDLENAELRRKLIRTKRAFEDTYEKLRMANKAKAQVEKDIKNQILKTHNVLRNVRSNMENEL
notes: GGS motif left at the N terminus after TEV cleavage; Centrosomin (Cnn), Drosophila, CM2 domain, aa1082-1148; The dimer holds a Zn2+ ion coordinated by H1082 and C1084; also called Cnn-motif 2 domain; Cnn_(1082-1148); source: E. coli C41 (DE3), purified (Ni-NTA, TEV cleavage, SEC); not shown: His-tagged lipoyl domain (Bacillus stearothermophilus dihydrolipoamide acetyltransferase), N-terminal, …

Experiments:
[1] = target: the molecule itself; assay: SEC-MALS; Superose 6 column; MBP-PReM apo or with addition of CM2 WT or point mutants; 50 mM Tris-HCl pH7.5, 150 mM NaCl, 10 μM ZnCl2, 5 mM β-mercaptoethanol
[2] = target: B1; assay: SEC-MALS; S75 10/300 column; 50 mM Tris-HCl pH7.5, 150 mM NaCl, 10 μM ZnCl2, 5 mM β-mercaptoethanol; proteins alone or mixed; conditions: both partners purified
[3] = target: the molecule itself; assay: as above
[4] = target: B1; assay: crystal structure; LZ:CM2 complexes of various LZ lengths and LZ-L535E:CM2; sitting drops, 21°C; conditions: both partners purified

Binder	stoichiometry N [3]	further results
MBP-PReM (domain or fragment, Drosophila melanogaster, UniProt P54623-2 403-608, looked up, Centrosomin (Cnn), Drosophila, phospho-regulated multimerization (PReM) domain, aa403-608; also called MBP-PReM fusion; Cnn-PReM (aa403-608); source: E. coli B834 (DE3), purified (Ni-NTA, SEC); not shown: MBP, N-terminal, kept) QLQTEVKKKTANLQNLVNKELWEKNREVERLTKLLANQQKTLPQISEESAGEADLQQSFTEAEYMRALERNKLLQRKVDVLFQRLADDQQNSAVIGQLRLELQQARTEVETADKWRLECVDVCSVLTNRLEELAGFLNSLLKHKDVLGVLAADRRNAMRKAVDRSLDLSKSLNMTLNITATSLADQSLAQLCNLSEILYTEGDASH	–	stoichiometry N [1]: 2
Cnn LZ WT (GPM-D490-K544) (domain or fragment, Drosophila melanogaster, Centrosomin (Cnn), Drosophila, LZ domain, aa490-544; Homo-tetramer alone in solution; a parallel homo-dimer in the 2:2 complex with CM2; also called LZ domain; leucine zipper; source: E. coli B834 (DE3), purified (Ni-NTA, SEC; tag cleaved with GST-3C protease, reverse Ni-NTA, SEC); not shown: His6, N-terminal, cleaved; MBP, N-terminal, cleaved) GPMDQQNSAVIGQLRLELQQARTEVETADKWRLECVDVCSVLTNRLEELAGFLNSLLK	4	stoichiometry N [2]: 1 LZ per CM2 (printed as 2:2)
LZ-L535E (domain or fragment, Drosophila melanogaster, N-terminal residues as printed for the WT LZ construct of the same vector; Centrosomin (Cnn), Drosophila, LZ domain, aa490-544, L535E; also called LZ (aa490-544 L535E); Cnn_(490-544) L535E; source: E. coli B834 (DE3), purified; not shown: His6, N-terminal, cleaved; MBP, N-terminal, cleaved) GPMDQQNSAVIGQLRLELQQARTEVETADKWRLECVDVCSVLTNRLEEEAGFLNSLLK	–	stoichiometry N [2]: 1 LZ per CM2 (printed as 2:2)
B1	2	–
CM2-L1137E (domain or fragment, Drosophila melanogaster, GGS motif left after TEV cleavage, as told for the WT CM2 construct of the same vector; Centrosomin (Cnn), Drosophila, CM2 domain, aa1082-1148, L1137E; also called CM2 (aa1082-1148 L1137E); source: E. coli C41 (DE3), purified; not shown: His-tagged lipoyl domain (Bacillus stearothermophilus dihydrolipoamide acetyltransferase), N-terminal, cleaved) GGSHDCAKVDLENAELRRKLIRTKRAFEDTYEKLRMANKAKAQVEKDIKNQILKTHNVERNVRSNMENEL	2	–
CM2-T1133E (domain or fragment, Drosophila melanogaster, GGS motif left after TEV cleavage, as told for the WT CM2 construct of the same vector; Centrosomin (Cnn), Drosophila, CM2 domain, aa1082-1148, T1133E; also called CM2 (aa1082-1148 T1133E); source: E. coli C41 (DE3), purified; not shown: His-tagged lipoyl domain (Bacillus stearothermophilus dihydrolipoamide acetyltransferase), N-terminal, cleaved) GGSHDCAKVDLENAELRRKLIRTKRAFEDTYEKLRMANKAKAQVEKDIKNQILKEHNVLRNVRSNMENEL	2	–
CM2-I1126E (domain or fragment, Drosophila melanogaster, GGS motif left after TEV cleavage, as told for the WT CM2 construct of the same vector; Centrosomin (Cnn), Drosophila, CM2 domain, aa1082-1148, I1126E; also called CM2 (aa1082-1148 I1126E); source: E. coli C41 (DE3), purified; not shown: His-tagged lipoyl domain (Bacillus stearothermophilus dihydrolipoamide acetyltransferase), N-terminal, cleaved) GGSHDCAKVDLENAELRRKLIRTKRAFEDTYEKLRMANKAKAQVEKDEKNQILKTHNVLRNVRSNMENEL	2	–
Cnn LZ (GPM-D490-L552) (domain or fragment, Drosophila melanogaster, source: E. coli, purified as complex with CM2; not shown: His6, N-terminal, cleaved; MBP, N-terminal, cleaved) GPMDQQNSAVIGQLRLELQQARTEVETADKWRLECVDVCSVLTNRLEELAGFLNSLLKHKDVLGVL	–	binding result [4]: binds

— PMC5457487, “Structural Basis for Mitotic Centrosome Assembly in Flies” (Cell, 2017)
